Results published in patent publication US20220306744A1 (CRESCENDO BIOLOGICS, published 2022).

T1: mouse PD-1 protein (R&D Systems cat no. 1021-PD) (mouse, UniProt Q02242 25-167)
T1 construct: Bought protein
T1 sequence (looked up): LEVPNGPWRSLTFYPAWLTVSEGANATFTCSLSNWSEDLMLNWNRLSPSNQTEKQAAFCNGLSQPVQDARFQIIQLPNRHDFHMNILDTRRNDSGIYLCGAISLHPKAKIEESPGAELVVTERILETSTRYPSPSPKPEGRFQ


Legend:
[1] = molecular target: T2, recombinant human PD-1 Fc chimera (human, UniProt Q15116 25-167); assay: SPR Biacore T200, single cycle kinetics, human PD-1-hu Fc amine coupled to CM5, 1:1 model
T2 construct: Bought protein (R&D 1086-PD in the HTRF assay); also called human PD-1-hu Fc; huPD-1Fc; not shown: human Fc
Procedure: Binding kinetics of certain humabodies binding to human PD-1-hu Fc were measured by surface plasmon resonance (SPR) technology using Biacore T200 instrument (GE Healthcare). Recombinant human PD-1-hu Fc was immobilized by standard amine coupling to CM5 sensors chip (GE Healthcare) using 0.1 mg/ml solution of antigen in 10 mM sodium acetate at pH 5.5. For the reference flow cell, a blank immobilisation was carried out. Single cycle kinetics assays were used to study the interaction, a five point, three-fold dilution series of each Humabody® VH was made with a top concentration of 30 nM. The binding kinetics were followed by flowing the Humabody® VH over the chip surface in HBS EP+ buffer at a flow rate of 30 μl/min. The contact time for each of the association steps was 180 seconds and the dissociation step was varied between 1200-3600 seconds. The data was fitted to a 1:1 binding model after double reference subtraction using the Biacore T200 Evaluation software.

[2] = molecular target: T2, recombinant human PD-1 Fc chimera; assay: BLI Octet, human PD-1-hu Fc amine coupled to biosensors, 1:1 model
Procedure: Binding kinetics for Humabody® 1.1a to human PD-1-hu Fc are shown below. These were measured in real-time bio-layer interferometer based biosensor Octet (ForteBio). Recombinant human PD-1-hu Fc was immobilized by standard amine coupling to amine reactive biosensors in 10 mM sodium acetate at pH 5.0. All the binding studies were performed in HBS-ET Octet kinetics buffer. Biosensors were always washed in Octet kinetics buffer in between different steps. A seven point, two-fold dilution series of each Humabody® VH was made with a top concentration of 30 nM. The contact time for each of the association steps was 300 seconds and the dissociation step was varied between 400-600 seconds. Kinetic association (kₐ) and dissociation (kd) rate constants were determined by processing and fitting the data to a 1:1 binding model using ForteBio Analysis software.

[3] = molecular target: T3, human PD-1 expressed on cells (CHO TREX human PD1 cell line, full-length human PD-1 sequence) (human, UniProt Q15116 21-288); assay: cell-based or functional assay
[4] = molecular target: T4, cynomolgus PD-1 recombinant protein (Acro Biosystems cat no. PD-1-C5254) (cynomolgus); assay: HTRF binding assay, 2 nM recombinant PD1, anti His-D2 and anti human-Fc cryptate
T4 construct: Bought protein; also called cyno PD1
Procedure: (§1) Purified VH were tested for their ability to bind to human PD1 (R&D Systems cat no. 1086-PD), cynomolgus PD-1 (Acro Biosystems cat no. PD-1-C5254) and mouse PD1 (R&D Systems cat no. 1021-PD) in an HTRF Binding assay format. All reagents and serially diluted VH were prepared in assay buffer containing PBS, 0.1% BSA and 0.4M Potassium Fluoride. Samples or assay buffer (non-specific binding) were incubated with 2 nM human/cynomolgus or mouse PD1, 1 nM Anti human-Fc Cryptate PAb (Cisbio cat. no. 61HFCKLB) and 30 nM anti His-D2 (CisBio cat no 61HISDLA) in black 384-shallow well assay plates for a minimum of 3 hours at room temperature. Time-resolved fluorescent emission at 620 nm and 665 nm was measured following excitation at 337 nm on the BMG PHERAstar plate reader. The HTRF ratio were calculated ((665 nm emission/620 nm emission)*10000) and the data corrected for (non-specific binding) to give the specific binding signal.

[5] = molecular target: T2, recombinant human PD-1 Fc chimera; assay: as above
Procedure: as §1

[6] = molecular target: T1, mouse PD-1 protein (R&D Systems cat no. …); assay: HTRF binding assay, 2 nM mouse PD1
Procedure: as §1

[7] = molecular target: T3, human PD-1 expressed on cells (CHO TREX …); assay: FMAT: inhibition of human Fc tagged human PD-L1 (400 pM) binding to CHO human PD-1 cells
Procedure: (§2) Purified VH were serially diluted in FMAT assay buffer and tested for binding to CHO human PD-1 cells as described above and for inhibition of human PD-L1/PD-L2 binding to CHO human PD-1 cells. All reagents and serially diluted VH were prepared in FMAT assay buffer. VH, buffer (total binding controls) or excess competitor (non-specific binding control) were incubated with 400 pM human Fc tagged human PD-L1 or 100 pM PDL-2, 4 nM anti human Fc-Alexa Fluor-488 and 2000 per well CHO human PD-1 DRAQ5 stained cells in a 384 well black clear-bottomed assay plates. Plates were incubated for 2 hours at room temperature then fluorescence measured in the FL2 (502 nm-537 nm) and FL5 (677-800 nm) channels on the Mirrorball plate reader (TTP) following excitation at 488 nm and 640 nm. Data was expressed as a % of the total binding control (i.e. % control) after subtraction of the background signal determined from the non-specific binding control wells. The results are shown in FIG. 5 and in Tables 8 and 9 below.

[8] = molecular target: T2, recombinant human PD-1 Fc chimera; assay: SPR Biacore T200, single cycle kinetics, human Fc tagged PD-1 captured on Protein G, 1:1 model
Procedure: Single cycle kinetics assays were used to study the interaction between human Fc tagged human PD-1 with Humabody® VH on a Biacore T200 instrument (GE Healthcare). Protein G was amine coupled to two flow cells of a CM-5 chip. Human Fc tagged recombinant human PD-1 was captured onto one of the flow cells. The other was used as the reference flow cell. A five point, three-fold dilution series of each Humabody® VH was made with a top concentration within the range of 50 to 150 nM. The binding kinetics were followed by flowing the Humabody® VH over the chip surface in HBS EP+ buffer at a flow rate of 30 μl/min. The contact time for each of the association steps was 180 seconds and the dissociation step was 3600 seconds. The data was fitted to a 1:1 binding model after double reference subtraction using the Biacore T200 Evaluation software.

[9] = molecular target: T3, human PD-1 expressed on cells (CHO TREX …); assay: FMAT: inhibition of PDL-2 (100 pM) binding to CHO human PD-1 cells
Procedure: as §2

[10] = molecular target: T5, Strep tagged recombinant human PD-1 (human, UniProt Q15116 25-167, limits assumed); assay: SPR Biacore T200, single cycle kinetics, Strep tagged human PD-1 amine coupled, 1:1 model
T5 construct: whole entry named; also called Strep tagged human PD-1; not shown: Strep tag
Procedure: Single cycle kinetics assays were used to study the interaction between human PD-1 with Humabody VHs on a Biacore T200 instrument (GE Healthcare). Strep tagged recombinant human PD-1 was amine coupled to one flow cell of a CM-5 chip to create a low density surface (14 RU) using standard Biacore reagents. For the reference flow cell, a blank immobilisation was carried out. A five point, three-fold dilution series of each Humabody VH was made with a top concentration of 25 nM. The binding kinetics were followed by flowing the Humabody VH over the chip surface in HBS EP+ buffer at a flow rate of 30 μl/min. The contact time for each of the association steps was 180 seconds and the dissociation step was 3300 seconds. The data was fitted to a 1:1 binding model after double reference subtraction using the Biacore T200 Evaluation software.

[11] = molecular target: T3, human PD-1 expressed on cells (CHO TREX …); assay: FMAT: inhibition of human Fc tagged human PD-L1 (400 pM) binding to CHO human PD-1 cells; remark: listed apart in the source
Procedure: as §2

T2 sequence (Q15116 25-167 limits assumed, stated change not applied): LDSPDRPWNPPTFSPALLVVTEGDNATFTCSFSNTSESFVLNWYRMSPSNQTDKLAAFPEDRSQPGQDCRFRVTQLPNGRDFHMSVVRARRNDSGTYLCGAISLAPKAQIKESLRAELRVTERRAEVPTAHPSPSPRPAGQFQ
T5 sequence (Q15116 25-167 limits assumed): as the sequence (Q15116 25-167 limits assumed, stated change not applied) above
T3 sequence (Q15116 21-288): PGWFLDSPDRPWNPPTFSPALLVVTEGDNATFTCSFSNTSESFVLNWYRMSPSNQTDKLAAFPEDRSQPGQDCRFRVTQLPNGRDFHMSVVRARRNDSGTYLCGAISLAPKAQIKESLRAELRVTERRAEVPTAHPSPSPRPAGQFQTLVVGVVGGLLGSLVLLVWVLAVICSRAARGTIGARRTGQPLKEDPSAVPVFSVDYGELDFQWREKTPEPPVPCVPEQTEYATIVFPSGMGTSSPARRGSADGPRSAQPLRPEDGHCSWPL

Binder	Kd [1] [pM]	koff [1] [s⁻¹]	kon [1] [M⁻¹ s⁻¹]	koff [2] [s⁻¹]	kon [2] [M⁻¹ s⁻¹]	EC50 (M), NFAT-Luciferase reporter gene assay [3] [M]	EC50 [4] [pM]	EC50 [5] [pM]	binding result [6]	IC50 [7] [pM]	Kd [8] [pM]	koff [8] [s⁻¹]	kon [8] [M⁻¹ s⁻¹]	IC50 [9] [pM]	Kd [10] [pM]	koff [10] [s⁻¹]	kon [10] [M⁻¹ s⁻¹]	IC50 [11] [pM]
1.1a (VHH, also called Humabody 1.1a; VH single domain antibody 1.1a) VHH: EVQLLESGGGSVQPGRSLRLSCAASGFTFDDHAMHWVRQAPGKGLEWVSGISWNSGSMGYADSVKDRFTISRDNAKSSLYLQMNSLRAEDTALYYCVREKGPGLTGSTADYYGLDVWGQGTMVTVSS	676	7.35e-05	109000	0.000901	459000													
1.1b-6GS-1.1a (other, Biparatopic VH-linker-VH) QVQLVESGGGLVKPGGSLRLSCAASGFTFSDYTMTWMRQAPGKGLEWVSYISTGGTIKYYTDSVKGRFTISRDNAKNSLYLQMNSLRADDTAVYYCAREAPLRLGESPHDAFDIWGQGTMVTVSSGGGGSGGGGSGGGGSGGGGSGGGGSGGGGSEVQLLESGGGSVQPGRSLRLSCAASGFTFDDHAMHWVRQAPGKGLEWVSGISWNSGSMGYADSVKDRFTISRDNAKSSLYLQMNSLRAEDTALYYCVREKGPGLTGSTADYYGLDVWGQGTMVTVSS	28	6.39e-06	228000			1.1e-08	920	500	no binding									
1.57b-4GS-1.1a (other, Biparatopic VH-linker-VH) QVQLVESGGGLVKPGGSLRLSCAASGFTFSDNSMTWMRQAPGKGLEWVSYISSGGGVIFYADSVKGRFTISRDNAKNSLYLQMNSLRADDTAVYYCAREAPLRLGESPHDAFDISGQGTMVTVSSGGGGSGGGGSGGGGSGGGGSEVQLLESGGGSVQPGRSLRLSCAASGFTFDDHAMHWVRQAPGKGLEWVSGISWNSGSMGYADSVKDRFTISRDNAKSSLYLQMNSLRAEDTALYYCVREKGPGLTGSTADYYGLDVWGQGTMVTVSS						1.7e-09	2100	1200	no binding	1300	0.0594	4.59e-08	773000	1200	111	4.86e-05	437000	900
